# From patent publication US20260103522A1 (LONGBIO PHARMA SUZHOU, published 2026)
# Biological target: T1, recombinant human FcεRIa extracellular region-mouse IgG2a Fc-6×His fusion protein (human; mouse, UniProt P12319 26-205)
# T1 construct: extracellular domain; Self-produced; also called FcεRIa-mG2Ahis; DB3967; not shown: mouse IgG2a Fc
# Test: BLI (GatorBio), FcεRIa-mG2Ahis loaded on Anti-HIS probe, binding protein at 200, 50, 12.5 nM
# Source text: In order to verify the binding ability of the binding proteins to FcεRIa, the Bio-layer Interferometry (BLI, GatorBio) was used to detect the affinity of the binding proteins to FcεRIa. The detailed affinity assay method can be found in the usage or application instructions of the GatorBio instrument, which was briefly described as follows: […]
# T1 sequence (P12319 26-205): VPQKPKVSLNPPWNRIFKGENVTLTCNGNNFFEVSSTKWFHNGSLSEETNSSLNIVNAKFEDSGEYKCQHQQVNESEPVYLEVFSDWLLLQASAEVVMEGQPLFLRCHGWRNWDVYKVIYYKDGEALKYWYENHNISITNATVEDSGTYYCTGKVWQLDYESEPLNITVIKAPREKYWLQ
row,Binder,Kd [nM]
1,"binding protein DB364 (designed binder, Engineered IgG Fc with IgE CH3 loops) DFTPPTVKILQSSCDGGGHFPPTIQLLCLVSGYTPGTINITWLEDGQVMDVDLSTASTTQEGELASTQSELTLSQKHWLSDRTYTCQVTYQGHTFEDSTKKCADSNPRGVSVFLFPPKPKDTLMISRTPEVTCVVVDLAPSKGTVKFNWYVDGVEVHNAKTKPREKQRNGTLTVVSVLTVLHQDWLNGKEYKCKVTHPHLPRALEKTISKAKGQPREPQVYTLPPSREEMTKNQVSLTCLVKGFYPSDIAVEWESNGQPENNYKTTPPVLDSDGSFFLYSKLTVDKSRWQQGNVFSCSVMHEALHNHYTQKSLSLSPGK",~1
2,"binding protein DB-B64 (designed binder, Engineered IgG Fc with IgE CH3 loops) CPAPELLGGPSVFLFPPKPKDTLMISRTPEVTCVVVDLAPSKGTVKFNWYVDGVEVHNAKTKPREKQRNGTLTVVSVLTVLHQDWLNGKEYKCKVTHPHLPRALEKTISKAKGQPREPQVYTLPPSREEMTKNQVSLTCLVKGFYPSDIAVEWESNGQPENNYKTTPPVLDSDGSFFLYSKLTVDKSRWQQGNVFSCSVMHEALHNHYTQKSLSLSPGK",~1
3,"binding protein DB177 (designed binder, Engineered human IgG Fc whose CH2 carries BC-LOOP, DE-TURN and FG-LOOP of IgE CH3) CSRDFTPPTVKILQSSCDGGGHFPPTIQLLCLVSGYTPGTINITWLEDGQVMDVDLSTASTTQEGELASTQSELTLSQKHWLSDRTYTCQVTYQGHTFEDSTKKCADSNPRGVSVFLFPPKPKDTLMISRTPEVTCVVVDLAPSKGTVKFNWYVDGVEVHNAKTKPREKQRNGTLTVVSVLTVLHQDWLNGKEYKCKVTHPHLPRALEKTISKAKGQPREPQVYTLPPSREEMTKNQVSLTCLVKGFYPSDIAVEWESNGQPENNYKTTPPVLDSDGSFFLYSKLTVDKSRWQQGNVFSCSVMHEALHNHYTQKSLSLSPGK",~1
4,"Her2-specific binding protein DB872 (antibody, human IgG1, kappa, IgG-like molecule: Pertuzumab Fab fused to the engineered Fc (on the basis of DB366); copies: 2 + 2) heavy: EVQLVESGGGLVQPGGSLRLSCAASGFTFTDYTMDWVRQAPGKGLEWVADVNPNSGGSIYNQRFKGRFTLSVDRSKNTLYLQMNSLRAEDTAVYYCARNLGPSFYFDYWGQGTLVTVSSASTKGPSVFPLAPSSKSTSGGTAALGCLVKDYFPEPVTVSWNSGALTSGVHTFPAVLQSSGLYSLSSVVTVPSSSLGTQTYICNVNHKPSNTKVDKKVEPKSCDKTHTCPPCPADSNPRGVSVFLFPPKPKDTLMISRTPEVTCVVVDLAPSKGTVKFNWYVDGVEVHNAKTKPREKQRNGTLTVVSVLTVLHQDWLNGKEYKCKVTHPHLPRALEKTISKAKGQPREPQVYTLPPSREEMTKNQVSLTCLVKGFYPSDIAVEWESNGQPENNYKTTPPVLDSDGSFFLYSKLTVDKSRWQQGNVFSCSVMHEALHNHYTQKSLSLSPGK light: not shown",~1
5,"GPC3-specific binding protein DB-B230 (antibody, human IgG1, kappa, IgG-like molecule: Codrituzumab Fab fused to the engineered Fc; copies: 2 + 2) heavy: QVQLVQSGAEVKKPGASVKVSCKASGYTFTDYEMHWVRQAPGQGLEWMGALDPKTGDTAYSQKFKGRVTLTADKSTSTAYMELSSLTSEDTAVYYCTRFYSYTYWGQGTLVTVSSASTKGPSVFPLAPSSKSTSGGTAALGCLVKDYFPEPVTVSWNSGALTSGVHTFPAVLQSSGLYSLSSVVTVPSSSLGTQTYICNVNHKPSNTKVDKKVEPKSCDKTHTCPPCPADSNPRGVSVFLFPPKPKDTLMISRTPEVTCVVVDLAPSKGTVKFNWYVDGVEVHNAKTKPREKQRNGTLTVVSVLTVLHQDWLNGKEYKCKVTHPHLPRALEKTISKAKGQPREPQVYTLPPSREEMTKNQVSLTCLVKGFYPSDIAVEWESNGQPENNYKTTPPVLDSDGSFFLYSKLTVDKSRWQQGNVFSCSVMHEALHNHYTQKSLSLSPGK light: DVVMTQSPLSLPVTPGEPASISCRSSQSLVHSNRNTYLHWYLQKPGQSPQLLIYKVSNRFSGVPDRFSGSGSGTDFTLKISRVEAEDVGVYYCSQNTHVPPTFGQGTKLEIKRTVAAPSVFIFPPSDEQLKSGTASVVCLLNNFYPREAKVQWKVDNALQSGNSQESVTEQDSKDSTYSLSSTLTLSKADYEKHKVYACEVTHQGLSSPVTKSFNRGEC",~1
6,"GPC3-specific binding protein DB-B229 (antibody, IgG-like molecule: Codrituzumab Fab fused to the engineered Fc; copies: 2 + 2) heavy: QVQLVQSGAEVKKPGASVKVSCKASGYTFTDYEMHWVRQAPGQGLEWMGALDPKTGDTAYSQKFKGRVTLTADKSTSTAYMELSSLTSEDTAVYYCTRFYSYTYWGQGTLVTVSSASTKGPSVFPLAPSSKSTSGGTAALGCLVKDYFPEPVTVSWNSGALTSGVHTFPAVLQSSGLYSLSSVVTVPSSSLGTQTYICNVNHKPSNTKVDKKVEPKSCSRDFTPPTVKILQSSCDGGGHFPPTIQLLCLVSGYTPGTINITWLEDGQVMDVDLSTASTTQEGELASTQSELTLSQKHWLSDRTYTCQVTYQGHTFEDSTKKCADSNPRGVSVFLFPPKPKDTLMISRTPEVTCVVVDLAPSKGTVKFNWYVDGVEVHNAKTKPREKQRNGTLTVVSVLTVLHQDWLNGKEYKCKVTHPHLPRALEKTISKAKGQPREPQVYTLPPSREEMTKNQVSLTCLVKGFYPSDIAVEWESNGQPENNYKTTPPVLDSDGSFFLYSKLTVDKSRWQQGNVFSCSVMHEALHNHYTQKSLSLSPGK light: DVVMTQSPLSLPVTPGEPASISCRSSQSLVHSNRNTYLHWYLQKPGQSPQLLIYKVSNRFSGVPDRFSGSGSGTDFTLKISRVEAEDVGVYYCSQNTHVPPTFGQGTKLEIKRTVAAPSVFIFPPSDEQLKSGTASVVCLLNNFYPREAKVQWKVDNALQSGNSQESVTEQDSKDSTYSLSSTLTLSKADYEKHKVYACEVTHQGLSSPVTKSFNRGEC",~1
7,"Her2-specific binding protein DB871 (antibody, IgG-like molecule: Pertuzumab Fab fused to the engineered Fc (on the basis of DB177); copies: 2 + 2) heavy: EVQLVESGGGLVQPGGSLRLSCAASGFTFTDYTMDWVRQAPGKGLEWVADVNPNSGGSIYNQRFKGRFTLSVDRSKNTLYLQMNSLRAEDTAVYYCARNLGPSFYFDYWGQGTLVTVSSASTKGPSVFPLAPSSKSTSGGTAALGCLVKDYFPEPVTVSWNSGALTSGVHTFPAVLQSSGLYSLSSVVTVPSSSLGTQTYICNVNHKPSNTKVDKKVEPKSCSRDFTPPTVKILQSSCDGGGHFPPTIQLLCLVSGYTPGTINITWLEDGQVMDVDLSTASTTQEGELASTQSELTLSQKHWLSDRTYTCQVTYQGHTFEDSTKKCADSNPRGVSVFLFPPKPKDTLMISRTPEVTCVVVDLAPSKGTVKFNWYVDGVEVHNAKTKPREKQRNGTLTVVSVLTVLHQDWLNGKEYKCKVTHPHLPRALEKTISKAKGQPREPQVYTLPPSREEMTKNQVSLTCLVKGFYPSDIAVEWESNGQPENNYKTTPPVLDSDGSFFLYSKLTVDKSRWQQGNVFSCSVMHEALHNHYTQKSLSLSPGK light: not shown",~1
8,"binding protein DB365 (designed binder, Engineered IgG Fc with IgE CH3 loops) TKKCADSNPRGVSVFLFPPKPKDTLMISRTPEVTCVVVDLAPSKGTVKFNWYVDGVEVHNAKTKPREKQRNGTLTVVSVLTVLHQDWLNGKEYKCKVTHPHLPRALEKTISKAKGQPREPQVYTLPPSREEMTKNQVSLTCLVKGFYPSDIAVEWESNGQPENNYKTTPPVLDSDGSFFLYSKLTVDKSRWQQGNVFSCSVMHEALHNHYTQKSLSLSPGK",~1
9,"binding protein DB366 (designed binder, Engineered IgG Fc with IgE CH3 loops) CADSNPRGVSVFLFPPKPKDTLMISRTPEVTCVVVDLAPSKGTVKFNWYVDGVEVHNAKTKPREKQRNGTLTVVSVLTVLHQDWLNGKEYKCKVTHPHLPRALEKTISKAKGQPREPQVYTLPPSREEMTKNQVSLTCLVKGFYPSDIAVEWESNGQPENNYKTTPPVLDSDGSFFLYSKLTVDKSRWQQGNVFSCSVMHEALHNHYTQKSLSLSPGK",~1
10,"binding protein DB-B63 (designed binder, Engineered IgG Fc with IgE CH3 loops) CADSNPRGVSVFLFPPKPKDTLMISRTPEVTCVVVDLAPSKGTVNFNWYVDGVEVHNAKTKPREKQRNGTLTVVSVLTVLHQDWLNGKEYKCRVTHPHLPRALEKTISKAKGQPREPQVYTLPPSREEMTKNQVSLTCLVKGFYPSDIAVEWESNGQPENNYKTTPPVLDSDGSFFLYSKLTVDKSRWQQGNVFSCSVMHEALHNHYTQKSLSLSPGK",~1
